This note sets out measurements from article PMC2778552.

The target in this assay is T1, human recombinant aromatase (human) (UniProt P11511).
T1 sequence: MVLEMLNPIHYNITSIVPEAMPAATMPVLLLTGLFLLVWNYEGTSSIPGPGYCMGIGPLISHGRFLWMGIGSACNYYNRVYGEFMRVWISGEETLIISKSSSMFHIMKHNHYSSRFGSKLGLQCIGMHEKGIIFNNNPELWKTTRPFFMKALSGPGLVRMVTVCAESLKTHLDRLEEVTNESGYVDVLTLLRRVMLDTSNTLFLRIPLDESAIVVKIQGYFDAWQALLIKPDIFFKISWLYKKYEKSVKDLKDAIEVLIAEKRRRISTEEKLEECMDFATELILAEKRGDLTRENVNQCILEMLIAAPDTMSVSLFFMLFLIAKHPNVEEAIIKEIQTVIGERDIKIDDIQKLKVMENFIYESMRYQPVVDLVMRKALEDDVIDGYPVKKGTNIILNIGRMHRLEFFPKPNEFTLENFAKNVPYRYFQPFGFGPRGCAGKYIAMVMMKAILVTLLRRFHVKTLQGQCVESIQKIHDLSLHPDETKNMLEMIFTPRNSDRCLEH

B1: NADPH-cytochrome P450 reductase (enzyme)
chain: MGDSHEDTSATMPEAVAEEVSLFSTTDMVLFSLIVGVLTYWFIFRKKKEEIPEFSKIQTTAPPVKESSFVEKMKKTGRNIIVFYGSQTGTAEEFANRLSKDAHRYGMRGMSADPEEYDLADLSSLPEIDKSLVVFCMATYGEGDPTDNAQDFYDWLQETDVDLTGVKFAVFGLGNKTYEHFNAMGKYVDQRLEQLGAQRIFELGLGDDDGNLEEDFITWREQFWPAVCEFFGVEATGEESSIRQYELVVHEDMDVAKVYTGEMGRLKSYENQKPPFDAKNPFLAAVTANRKLNQGTERHLMHLELDISDSKIRYESGDHVAVYPANDSALVNQIGEILGADLDVIMSLNNLDEESNKKHPFPCPTTYRTALTYYLDITNPPRTNVLYELAQYASEPSEQEHLHKMASSSGEGKELYLSWVVEARRHILAILQDYPSLRPPIDHLCELLPRLQARYYSIASSSKVHPNSVHICAVAVEYEAKSGRVNKGVATSWLRAKEPAGENGGRALVPMFVRKSQFRLPFKSTTPVIMVGPGTGIAPFMGFIQERAWLREQGKEVGETLLYYGCRRSDEDYLYREELARFHKDGALTQLNVAFSREQAHKVYVQHLLKRDREHLWKLIHEGGAHIYVCGDARNMAKDVQNTFYDIVAEFGPMEHTQAVDYVKKLMTKGRYSLDVWS
As to B1, the Km of aromatase for reductase from Lineweaver–Burk plots; tritiated water release from [1β-3H(N)]-androstenedione, 50 nM pure aromatase, reductase 1 nM to 20 nM, androstenedione 10 nM to 500 nM, 37°C turned out to be 1 nM.
